This is an account of results in PMC3782497, “Unique Structure and Dynamics of the EphA5 Ligand Binding Domain Mediate Its Binding Specificity as Revealed by X-ray Crystallography, NMR and MD Simulations” (PLoS ONE, 2013).

A word on the Kd: it is the equilibrium constant for the complex coming apart. The IC50 is the concentration that gives 50% inhibition.

Test [1] concerns the target T1, human EphA5 ligand-binding domain (LBD), residues 59-235 (human, UniProt P54756 59-235, K232E (from the reverse primer; not stated by the paper) | C233A (from the …, disulfide bridges Cys137-Cys147 and Cys102-Cys220; 15N-labelled for the NMR titration).
T1 construct: Cloned through BamHI into a modified pET32a and released by thrombin, so extra N-terminal residues (probably GS) may remain; also called EphA5 LBD; source: E. coli Rosetta-gami (DE3), purified (Ni-NTA, thrombin cleavage, gel filtration, Mono Q)
Briefly: ITC; EphA5 LBD in the cell, bacterially expressed WDC in the syringe; 10 mM phosphate buffer pH 6.3, 25°C; single binding site model. The note with it: both partners purified. A general note: ITC needs no label: the signal is the heat of the interaction.
T1 sequence (P54756 59-235 K232E/C233A): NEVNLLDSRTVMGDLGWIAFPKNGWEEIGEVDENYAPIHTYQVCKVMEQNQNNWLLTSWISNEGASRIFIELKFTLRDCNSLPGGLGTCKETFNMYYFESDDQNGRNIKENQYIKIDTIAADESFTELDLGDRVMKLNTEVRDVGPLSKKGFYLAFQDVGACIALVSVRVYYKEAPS

The target in test [2] is human EphA5 ligand-binding domain (LBD), residues 59-235 (human, UniProt P54756 59-235, K232E (from the reverse primer; not stated by the paper) | C233A (from the …, disulfide bridges Cys137-Cys147 and Cys102-Cys220; 15N-labelled for the NMR titration). Briefly: ITC.
Target sequence in this assay (P54756 59-235 K232E/C233A): as above
Test [3] deals with T2, rat EphA5 Fc (rat, UniProt P54757 27-575).
T2 construct: EphA5, rat, Fc fusion; source: bought: R&D Systems
T2 sequence (P54757 27-575): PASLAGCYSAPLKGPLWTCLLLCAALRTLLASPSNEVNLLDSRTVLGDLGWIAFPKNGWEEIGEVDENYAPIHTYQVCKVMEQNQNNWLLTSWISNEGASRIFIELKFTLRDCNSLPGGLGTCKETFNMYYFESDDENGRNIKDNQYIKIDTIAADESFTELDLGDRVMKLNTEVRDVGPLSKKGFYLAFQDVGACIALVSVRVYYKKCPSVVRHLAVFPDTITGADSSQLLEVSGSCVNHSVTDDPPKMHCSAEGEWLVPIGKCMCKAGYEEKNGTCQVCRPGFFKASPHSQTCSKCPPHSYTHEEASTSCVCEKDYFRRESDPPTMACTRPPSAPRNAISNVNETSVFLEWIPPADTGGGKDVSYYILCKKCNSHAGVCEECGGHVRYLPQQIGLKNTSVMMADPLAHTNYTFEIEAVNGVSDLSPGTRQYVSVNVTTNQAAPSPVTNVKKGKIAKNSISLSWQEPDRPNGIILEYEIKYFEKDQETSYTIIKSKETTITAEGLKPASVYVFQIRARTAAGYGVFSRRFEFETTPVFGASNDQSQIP
Description: ELISA; rat EphA5 Fc (1 µg/mL) held on Protein A-coated wells; different concentrations of synthetic WDC with 0.6 nM ephrin-A5 AP for 1 hour; bound AP detected with pNPP; IC50 by non linear regression. As to conditions: both partners purified.

Bridge positions count the residues as written; N and C are the ends. Square brackets hold non-standard residues; d marks the D form. Primed or numbered codes have the meaning given here. Ends that are not written are not given here. PEG2′ = not defined here

B1: WDC antagonistic peptide (WDCNGPYCHWLG), bacterially expressed (peptide)
peptide: WDCNGPYCHWLG
modifications: disulfide 3-8 (inferred)
notes: 12-residue peptide previously identified in a phage-display screen on the extracellular domain of rat EphA5; Cloned through BamHI into a modified pGEX-4T-1; also called WDC peptide; recombinant peptide; source: E. coli Rosetta-gami (DE3), GST fusion, released by in-gel thrombin cleavage, HPLC purified
Molecule B1 gave a Kd in test [1] of 6.2 µM. In test [2], this molecule showed a Ka of 161000 M⁻¹.

B2: modified WDC peptide (WDCNGPYCHWLG-(PEG)2-KK), synthetic (peptide)
peptide: WDCNGPYCHWLG[PEG2′]KK
modifications: disulfide 3-8
notes: WDC peptide; two lysines joined to the peptide through (PEG)2, which is not an amino acid linker; also called synthetic WDC peptide; source: synthetic peptide (Anaspec, Inc.)
In test [3], B2 gave a half-maximal inhibitory concentration (IC50) of around 50 µM.
